Measurements from patent US20130236462A1 (Sanofi, published 2013).

T1: recombinant human IL-4 (human, UniProt P05112 25-153)
T1 sequence (looked up): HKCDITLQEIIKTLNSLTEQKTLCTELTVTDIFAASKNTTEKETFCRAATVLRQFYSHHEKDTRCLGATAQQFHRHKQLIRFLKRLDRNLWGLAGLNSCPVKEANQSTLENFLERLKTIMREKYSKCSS


Experiments:
recombinant human IL-13 [1] = target: T2, recombinant human IL-13 (human, UniProt P35225 35-146, limits assumed); assay: SPR Biacore 3000, antibody captured, cytokine in solution
Excerpt: (§1) Surface plasmon resonance technology on a Biacore 3000 (GE Healthcare) was used for detailed kinetic characterisation of purified anibodics. A capture assay using a species specific antibody (e.g. human-Fc specific MAB 1302, Chemicon) for capture and orientation of the investigated antibodies was used. The capture antibody was immobilized via primary amine groups (10000 RU) on a research grade CM5 chip (GE Life Sciences) using standard procedures. The analysed antibody was captured with an adjusted RU value that would result in maximal analyte binding of 30 RU at a flow rate of 10 μl/min. Binding kinetics were measured against recombinant human IL-4 and IL-13 over a concentration range between 0 to 50 nM in HBS EP (10 mM HEPES pH 7.4, 150 mM NaCl, 3 mM EDTA, 0.005% Surfactant P20) at a flow rate of 30 μl/min. Chip surfaces were regenerated with 10 mM glycine pH2.5. Kinetic parameters were analysed and calculated in the BIAevaluation program package using a flow cell without captured antibody as reference. To investigate additive binding of both antigens, a wizard-driven co-inject method has been applied in which one antigen was injected immediately followed by the antigen mix of IL-13/IL-4.

recombinant human IL-13 [2] = target: T2, recombinant human IL-13; assay: cell-based or functional assay
recombinant human IL-4 [3] = target: T1, recombinant human IL-4; assay: cell-based or functional assay
[4] = target: human IL-13 R112Q variant (human) (UniProt P35225); assay: SPR Biacore 3000, antibody captured, cytokine in solution
Sequence of human IL-13 R112Q variant (human) (P35225 33-146, stated change not applied): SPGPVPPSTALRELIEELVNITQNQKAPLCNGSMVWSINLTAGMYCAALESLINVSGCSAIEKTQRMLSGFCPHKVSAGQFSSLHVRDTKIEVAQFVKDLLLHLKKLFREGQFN

recombinant human IL-4 [5] = target: T1, recombinant human IL-4; assay: as above
Excerpt: as §1
Binding and neutralization activity assays were performed as described in the previous Examples.

T2 sequence (P35225 35-146 limits assumed): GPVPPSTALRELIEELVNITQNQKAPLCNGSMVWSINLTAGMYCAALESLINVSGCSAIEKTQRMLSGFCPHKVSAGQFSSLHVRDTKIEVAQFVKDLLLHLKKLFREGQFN

| Kd (recombinant human IL-13 [1]) | koff (recombinant human IL-13 [1]) | kon (recombinant human IL-13 [1]) | IC50, inhibition of IL-13 induced TF-1 cell proliferation (recombinant human IL-13 [2]) | IC50 (nM) in IL-4 assay (TF-1 cell proliferation) (recombinant human IL-4 [3]) | Kd [4] | koff [4] | kon [4] | Kd (recombinant human IL-4 [5]) | koff (recombinant human IL-4 [5]) | kon (recombinant human IL-4 [5]) | Molecule |
| --- | --- | --- | --- | --- | --- | --- | --- | --- | --- | --- | --- |
| 563 pM | 0.000373 s⁻¹ | 864000 M⁻¹ s⁻¹ | – | – | – | – | – | – | – | – | mouse anti-IL-13 monoclonal antibody clone B-B13 |
| 261 pM | 0.000461 s⁻¹ | 1.76e+06 M⁻¹ s⁻¹ | 7400 pM | – | – | – | – | – | – | – | chimeric anti-IL-13 clone B-B13 monoclonal antibody |
| – | – | – | – | 1.7 nM | 121 pM | 0.000118 s⁻¹ | 974000 M⁻¹ s⁻¹ | 148 pM | 0.000378 s⁻¹ | 2.55e+06 M⁻¹ s⁻¹ | huTBTI3_1_1 (bispecific antibody, IgG4, Dual variable domain IgG4: B-B13 VL3 × VH2 outer, 8D4-8 VL1 × VH2 inner, (G4S)2 linkers; heterotetramer of two heavy and two light chains; copies: 2 + 2) VH: EVQLKESGPGLVAPGGSLSITCTVSGFSLTDSSINWVRQPPGKGLEWLGMIWGDGRIDYADALKSRLSISKDSSKSQVFLEMTSLRTDDTATYYCARDGYFPYAMDFWGQGTSVTVSSGGGGSGGGGSQVQLQQSGPELVKPGASVKISCKASGYSFTSYWIHWIKQRPGQGLEWIGMIDASDGETRLNQRFQGRATLTVDESTSTAYMQLRSPTSEDSAVYYCTRLKEYGNYDSFYFDVWGAGTLVTVSS VL: DIVLTQSPASLAVSLGQRATISCRASESVDSYGQSYMHWYQQKAGQPPKLLIYLASNLESGVPARFSGSGSRTDFTLTIDPVQAEDAATYYCQQNAEDSRTFGGGTKLEIKGGGGSGGGGSDIQMTQSPASLSVSVGDTITLTCHASQNIDVWLSWFQQKPGNIPKLLIYKASNLHTGVPSRFSGSGSGTGFTLTISSLQPEDIATYYCQQAHSYPFTFGGGTKLEIK |
| – | – | – | – | 0.32 nM | 211 pM | 0.0002 s⁻¹ | 948000 M⁻¹ s⁻¹ | 34.7 pM | 0.000139 s⁻¹ | 4e+06 M⁻¹ s⁻¹ | huTBTI3_2_1 (bispecific antibody, IgG4, Dual variable domain IgG4: B-B13 VL3 × VH2 outer, 8D4-8 VL1 × VH1 inner, (G4S)2 linkers; heterotetramer of two heavy and two light chains; copies: 2 + 2) VH: EVQLKESGPGLVAPGGSLSITCTVSGFSLTDSSINWVRQPPGKGLEWLGMIWGDGRIDYADALKSRLSISKDSSKSQVFLEMTSLRTDDTATYYCARDGYFPYAMDFWGQGTSVTVSSGGGGSGGGGSQVQLQQSGPELVKPGASVKISCKASGYSFTSYWIHWIKQRPGQGLEWIGMIDPSDGETRLNQRFQGRATLTVDESTSTAYMQLRSPTSEDSAVYYCTRLKEYGNYDSFYFDVWGAGTLVTVSS VL: DIVLTQSPASLAVSLGQRATISCRASESVDSYGQSYMHWYQQKAGQPPKLLIYLASNLESGVPARFSGSGSRTDFTLTIDPVQAEDAATYYCQQNAEDSRTFGGGTKLEIKGGGGSGGGGSDIQMTQSPASLSVSVGDTITLTCHASQNIDVWLSWFQQKPGNIPKLLIYKASNLHTGVPSRFSGSGSGTGFTLTISSLQPEDIATYYCQQAHSYPFTFGGGTKLEIK |
| – | – | – | – | – | – | – | – | 33.2 pM | 0.000132 s⁻¹ | 3.96e+06 M⁻¹ s⁻¹ | huTBTI3_2_2 (bispecific antibody, IgG4, Dual variable domain IgG4: B-B13 VL2 × VH2 outer, 8D4-8 VL1 × VH1 inner, (G4S)2 linkers; heterotetramer of two heavy and two light chains; copies: 2 + 2) VH: EVQLKESGPGLVAPGGSLSITCTVSGFSLTDSSINWVRQPPGKGLEWLGMIWGDGRIDYADALKSRLSISKDSSKSQVFLEMTSLRTDDTATYYCARDGYFPYAMDFWGQGTSVTVSSGGGGSGGGGSQVQLQQSGPELVKPGASVKISCKASGYSFTSYWIHWIKQRPGQGLEWIGMIDPSDGETRLNQRFQGRATLTVDESTSTAYMQLRSPTSEDSAVYYCTRLKEYGNYDSFYFDVWGAGTLVTVSS VL: DIVLTQSPASLAVSLGQRATISCRASESVDSYGNSYMHWYQQKAGQPPKLLIYLASNLESGVPARFSGSGSRTDFTLTIDPVQAEDAATYYCQQNNEDSRTFGGGTKLEIKGGGGSGGGGSDIQMTQSPASLSVSVGDTITLTCHASQNIDVWLSWFQQKPGNIPKLLIYKASNLHTGVPSRFSGSGSGTGFTLTISSLQPEDIATYYCQQAHSYPFTFGGGTKLEIK |
| – | – | – | – | – | – | – | – | 138 pM | 0.000308 s⁻¹ | 2.23e+06 M⁻¹ s⁻¹ | huTBTI3_1_2 (bispecific antibody, IgG4, Dual variable domain IgG4: B-B13 VL2 × VH2 outer, 8D4-8 VL1 × VH2 inner, (G4S)2 linkers; heterotetramer of two heavy and two light chains; copies: 2 + 2) VH: EVQLKESGPGLVAPGGSLSITCTVSGFSLTDSSINWVRQPPGKGLEWLGMIWGDGRIDYADALKSRLSISKDSSKSQVFLEMTSLRTDDTATYYCARDGYFPYAMDFWGQGTSVTVSSGGGGSGGGGSQVQLQQSGPELVKPGASVKISCKASGYSFTSYWIHWIKQRPGQGLEWIGMIDASDGETRLNQRFQGRATLTVDESTSTAYMQLRSPTSEDSAVYYCTRLKEYGNYDSFYFDVWGAGTLVTVSS VL: DIVLTQSPASLAVSLGQRATISCRASESVDSYGNSYMHWYQQKAGQPPKLLIYLASNLESGVPARFSGSGSRTDFTLTIDPVQAEDAATYYCQQNNEDSRTFGGGTKLEIKGGGGSGGGGSDIQMTQSPASLSVSVGDTITLTCHASQNIDVWLSWFQQKPGNIPKLLIYKASNLHTGVPSRFSGSGSGTGFTLTISSLQPEDIATYYCQQAHSYPFTFGGGTKLEIK |
| 157 pM | 0.000177 s⁻¹ | 1.13e+06 M⁻¹ s⁻¹ | – | – | – | – | – | – | – | – | huB-B13 VL2 × VH2 (antibody, V domains shown, Expressed as a whole antibody, purified on Protein A; also called humanized B-B13 VL2xVH2) VH: EVQLKESGPGLVAPGGSLSITCTVSGFSLTDSSINWVRQPPGKGLEWLGMIWGDGRIDYADALKSRLSISKDSSKSQVFLEMTSLRTDDTATYYCARDGYFPYAMDFWGQGTSVTVSS VL: DIVLTQSPASLAVSLGQRATISCRASESVDSYGNSYMHWYQQKAGQPPKLLIYLASNLESGVPARFSGSGSRTDFTLTIDPVQAEDAATYYCQQNNEDSRTFGGGTKLEIK |
